Assay results as given in patent publication US20150147274A1 (CANCER RESEARCH TECHNOLOGY, published 2015).

Columns and labels:
[1] = molecular target: T1, MET928 (cMET protein derived from construct 25-928) (human, UniProt P08581 25-928); assay: Biacore SPR, MET-928 on chip, scFv format
T1 construct: MET ectodomain, residues 1-24 are the leader; produced in Lec 8 cells; background text says the ectodomain is furin-cleaved into alpha (25-307) and beta chains; biotinylated form used in selections; also called MET928 extracellular domain; Met extracellular domain
T1 sequence (P08581 25-928): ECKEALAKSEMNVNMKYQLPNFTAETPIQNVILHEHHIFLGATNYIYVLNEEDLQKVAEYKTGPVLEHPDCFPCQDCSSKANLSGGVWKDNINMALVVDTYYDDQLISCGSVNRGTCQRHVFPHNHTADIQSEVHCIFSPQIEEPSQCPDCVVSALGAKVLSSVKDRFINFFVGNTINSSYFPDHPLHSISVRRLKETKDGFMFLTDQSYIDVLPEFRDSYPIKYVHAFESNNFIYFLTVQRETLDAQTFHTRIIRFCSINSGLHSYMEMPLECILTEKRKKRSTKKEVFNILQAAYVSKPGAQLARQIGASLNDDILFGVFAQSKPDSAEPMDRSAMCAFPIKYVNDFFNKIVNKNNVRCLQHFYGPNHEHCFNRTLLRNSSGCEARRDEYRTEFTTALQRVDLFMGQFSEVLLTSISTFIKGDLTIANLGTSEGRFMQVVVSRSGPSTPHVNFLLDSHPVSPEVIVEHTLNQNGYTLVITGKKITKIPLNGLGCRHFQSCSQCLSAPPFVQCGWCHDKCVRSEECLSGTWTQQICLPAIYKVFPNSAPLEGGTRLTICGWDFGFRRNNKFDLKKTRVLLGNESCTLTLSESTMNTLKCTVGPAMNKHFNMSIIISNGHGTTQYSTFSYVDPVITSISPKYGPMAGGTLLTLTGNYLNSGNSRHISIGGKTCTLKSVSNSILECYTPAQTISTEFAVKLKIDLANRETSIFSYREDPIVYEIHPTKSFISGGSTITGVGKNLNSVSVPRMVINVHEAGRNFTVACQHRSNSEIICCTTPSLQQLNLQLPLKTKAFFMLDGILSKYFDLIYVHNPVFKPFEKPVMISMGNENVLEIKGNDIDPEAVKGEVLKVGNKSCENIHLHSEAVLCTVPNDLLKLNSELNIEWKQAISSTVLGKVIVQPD
Method: The binding characteristics of 7A2 and its derivatives were measured using a GE Healthcare Biacore biosensor.

[2] = molecular target: T1, MET928 (cMET protein derived from …); assay: ELISA, soluble scFv

Row | binding result [2] | Binder | further results
1 | – | 107_A01 scFv (6xHis/tri-Flag tags) (scFv, 7A2 derivative, only VH CDR3 changed; not shown: 6xHis/tri-FLAG tags of pSANG10-3F) scFv: QMQLVQSGAEVKKPGAPVKVSCKVSGYTFTDYYMHWVQQAPGKGLEWMGLVDPEDGETIYAEKFQGRVTITADTSTDTAYMELSSLRSEDTAVYYCATDATTPYWGMVSWGQGTLVTVSSLEGGGGSGGGGSGGGASDIQMTQSPSSLSASVGDRVTITCQASQDISNYLNWYQQKPGRAPKVLIYDASNLETGVPSRFSGSGSGTEFTLTISNLRPDDFATYYCQQGDSFPLTFGGGTKVEIK | Kd [1]: 0.0652 nM; koff [1]: 0.00321 s⁻¹; kon [1]: 4.92e+07 M⁻¹ s⁻¹
2 | binds | 112_H8 (scFv, not shown: 6xHis/tri-FLAG tags) scFv: QMQLVQSGAEVKKPGAPVKVSCKVSGYTFTDYYMHWVQQAPGKGLEWMGLVDPEDGETIYAEKFQGRVTITADTSTDTAYMELSSLRSEDTAVYYCATDATTPYWLPLYWGQGTLVTVSSLEGGGGSGGGGSGGGASDIQMTQSPSSLSASVGDRVTITCQASQDISNYLNWYQQKPGRAPKVLIYDASNLETGVPSRFSGSGSGTEFTLTISNLRPDDFATYYCQQGDSFPLTFGGGTKVEIK | –
3 | binds | 112_H12 (scFv, not shown: 6xHis/tri-FLAG tags) scFv: QMQLVQSGAEVKKPGAPVKVSCKVSGYTFTDYYMHWVQQAPGKGLEWMGLVDPEDGETIYAEKFQGRVTITADTSTDTAYMELSSLRSEDTAVYYCATDATTPYWFPYKWGQGTLVTVSSLEGGGGSGGGGSGGGASDIQMTQSPSSLSASVGDRVTITCQASQDISNYLNWYQQKPGRAPKVLIYDASNLETGVPSRFSGSGSGTEFTLTISNLRPDDFATYYCQQGDSFPLTFGGGTKVEIK | –
4 | binds | 112_H4 (scFv, not shown: 6xHis/tri-FLAG tags) scFv: QMQLVQSGAEVKKPGAPVKVSCKVSGYTFTDYYMHWVQQAPGKGLEWMGLVDPEDGETIYAEKFQGRVTITADTSTDTAYMELSSLRSEDTAVYYCATDATTPYWGMWKWGQGTLVTVSSLEGGGGSGGGGSGGGASDIQMTQSPSSLSASVGDRVTITCQASQDISNYLNWYQQKPGRAPKVLIYDASNLETGVPSRFSGSGSGTEFTLTISNLRPDDFATYYCQQGDSFPLTFGGGTKVEIK | –
5 | binds | 112_H7 (scFv, not shown: 6xHis/tri-FLAG tags) scFv: QMQLVQSGAEVKKPGAPVKVSCKVSGYTFTDYYMHWVQQAPGKGLEWMGLVDPEDGETIYAEKFQGRVTITADTSTDTAYMELSSLRSEDTAVYYCATDATTPYWGVQSWGQGTLVTVSSLEGGGGSGGGGSGGGASDIQMTQSPSSLSASVGDRVTITCQASQDISNYLNWYQQKPGRAPKVLIYDASNLETGVPSRFSGSGSGTEFTLTISNLRPDDFATYYCQQGDSFPLTFGGGTKVEIK | –
6 | binds | 112_H1 (scFv, not shown: 6xHis/tri-FLAG tags) scFv: QMQLVQSGAEVKKPGAPVKVSCKVSGYTFTDYYMHWVQQAPGKGLEWMGLVDPEDGETIYAEKFQGRVTITADTSTDTAYMELSSLRSEDTAVYYCATDATTPYWGAAVWGQGTLVTVSSLEGGGGSGGGGSGGGASDIQMTQSPSSLSASVGDRVTITCQASQDISNYLNWYQQKPGRAPKVLIYDASNLETGVPSRFSGSGSGTEFTLTISNLRPDDFATYYCQQGDSFPLTFGGGTKVEIK | –
7 | – | 107_A07 scFv (6xHis/tri-Flag tags) (scFv, 7A2 derivative, only VH CDR3 changed; not shown: 6xHis/tri-FLAG tags of pSANG10-3F) scFv: QMQLVQSGAEVKKPGAPVKVSCKVSGYTFTDYYMHWVQQAPGKGLEWMGLVDPEDGETIYAEKFQGRVTITADTSTDTAYMELSSLRSEDTAVYYCATDATTPYWGMMWWGQGTLVTVSSLEGGGGSGGGGSGGGASDIQMTQSPSSLSASVGDRVTITCQASQDISNYLNWYQQKPGRAPKVLIYDASNLETGVPSRFSGSGSGTEFTLTISNLRPDDFATYYCQQGDSFPLTFGGGTKVEIK | Kd [1]: 0.346 nM; koff [1]: 0.00115 s⁻¹; kon [1]: 3.31e+06 M⁻¹ s⁻¹
8 | binds | 112_H5 (scFv, not shown: 6xHis/tri-FLAG tags) scFv: QMQLVQSGAEVKKPGAPVKVSCKVSGYTFTDYYMHWVQQAPGKGLEWMGLVDPEDGETIYAEKFQGRVTITADTSTDTAYMELSSLRSEDTAVYYCATDATTPYWGMQAWGQGTLVTVSSLEGGGGSGGGGSGGGASDIQMTQSPSSLSASVGDRVTITCQASQDISNYLNWYQQKPGRAPKVLIYDASNLETGVPSRFSGSGSGTEFTLTISNLRPDDFATYYCQQGDSFPLTFGGGTKVEIK | –
9 | binds | 112_G11 (scFv, not shown: 6xHis/tri-FLAG tags) scFv: QMQLVQSGAEVKKPGAPVKVSCKVSGYTFTDYYMHWVQQAPGKGLEWMGLVDPEDGETIYAEKFQGRVTITADTSTDTAYMELSSLRSEDTAVYYCATDATTPYWFPYTWGQGTLVTVSSLEGGGGSGGGGSGGGASDIQMTQSPSSLSASVGDRVTITCQASQDISNYLNWYQQKPGRAPKVLIYDASNLETGVPSRFSGSGSGTEFTLTISNLRPDDFATYYCQQGDSFPLTFGGGTKVEIK | –
10 | binds | 112_G9 (scFv, not shown: 6xHis/tri-FLAG tags) scFv: QMQLVQSGAEVKKPGAPVKVSCKVSGYTFTDYYMHWVQQAPGKGLEWMGLVDPEDGETIYAEKFQGRVTITADTSTDTAYMELSSLRSEDTAVYYCATDATTPYWGMQRWGQGTLVTVSSLEGGGGSGGGGSGGGASDIQMTQSPSSLSASVGDRVTITCQASQDISNYLNWYQQKPGRAPKVLIYDASNLETGVPSRFSGSGSGTEFTLTISNLRPDDFATYYCQQGDSFPLTFGGGTKVEIK | –
11 | binds | 112_H10 (scFv, not shown: 6xHis/tri-FLAG tags) scFv: QMQLVQSGAEVKKPGAPVKVSCKVSGYTFTDYYMHWVQQAPGKGLEWMGLVDPEDGETIYAEKFQGRVTITADTSTDTAYMELSSLRSEDTAVYYCATDATTPYWGIRKWGQGTLVTVSSLEGGGGSGGGGSGGGASDIQMTQSPSSLSASVGDRVTITCQASQDISNYLNWYQQKPGRAPKVLIYDASNLETGVPSRFSGSGSGTEFTLTISNLRPDDFATYYCQQGDSFPLTFGGGTKVEIK | –
12 | binds | 112_H9 (scFv, not shown: 6xHis/tri-FLAG tags) scFv: QMQLVQSGAEVKKPGAPVKVSCKVSGYTFTDYYMHWVQQAPGKGLEWMGLVDPEDGETIYAEKFQGRVTITADTSTDTAYMELSSLRSEDTAVYYCATDATTPYWFPYSWGQGTLVTVSSLEGGGGSGGGGSGGGASDIQMTQSPSSLSASVGDRVTITCQASQDISNYLNWYQQKPGRAPKVLIYDASNLETGVPSRFSGSGSGTEFTLTISNLRPDDFATYYCQQGDSFPLTFGGGTKVEIK | –
13 | binds | 112_H11 (scFv, not shown: 6xHis/tri-FLAG tags) scFv: QMQLVQSGAEVKKPGAPVKVSCKVSGYTFTDYYMHWVQQAPGKGLEWMGLVDPEDGETIYAEKFQGRVTITADTSTDTAYMELSSLRSEDTAVYYCATDATTPYWFPQVWGQGTLVTVSSLEGGGGSGGGGSGGGASDIQMTQSPSSLSASVGDRVTITCQASQDISNYLNWYQQKPGRAPKVLIYDASNLETGVPSRFSGSGSGTEFTLTISNLRPDDFATYYCQQGDSFPLTFGGGTKVEIK | –
14 | binds | 112_H6 (scFv, not shown: 6xHis/tri-FLAG tags) scFv: QMQLVQSGAEVKKPGAPVKVSCKVSGYTFTDYYMHWVQQAPGKGLEWMGLVDPEDGETIYAEKFQGRVTITADTSTDTAYMELSSLRSEDTAVYYCATDATTPYWGMMEWGQGTLVTVSSLEGGGGSGGGGSGGGASDIQMTQSPSSLSASVGDRVTITCQASQDISNYLNWYQQKPGRAPKVLIYDASNLETGVPSRFSGSGSGTEFTLTISNLRPDDFATYYCQQGDSFPLTFGGGTKVEIK | –
